The values below come from article PMC8203622, “Tight docking of membranes before fusion represents a metastable state with unique properties” (Nature Communications, 2021).

The target of the test is T1, syntaxin-1A (183–288) (Rattus norvegicus, UniProt P32851 183-288).
T1 construct: syntaxin-1A, Rattus norvegicus, residues 183-288
The test is described as follows: assembly of a complex by mixing, isolated by ion exchange chromatography (MonoQ); purified proteins mixed overnight at 4 °C in a buffer containing CHAPS, then MonoQ. As to conditions: both partners purified.

T1 sequence (P32851 183-288): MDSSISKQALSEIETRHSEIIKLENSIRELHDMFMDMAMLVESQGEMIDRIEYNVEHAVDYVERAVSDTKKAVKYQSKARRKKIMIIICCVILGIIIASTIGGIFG

B1: synaptobrevin-2 fragment (49–96) (domain or fragment, Rattus norvegicus, UniProt P63045 49-96, looked up)
chain: NVDKVLERDQKLSELDDRADALQAGASQFETSAAKLKRKYWWKNLKMM
notes: synaptobrevin-2, Rattus norvegicus, residues 49-96; also called synaptobrevin fragment 49–96
In the case of B1, the binding result is “binds”.
